According to patent US20240132578A1:

How the values were obtained:
Assay in all cases: cell-based or functional assay
[1] = biological target: HIV-1 MGRM-A-010 envelope glycoprotein (Env) on pseudovirus (HIV-1)
[2] = biological target: HIV-1 JRFL envelope glycoprotein (Env) on pseudovirus (HIV-1)
[3] = biological target: HIV-1 MGRM-AG-005 envelope glycoprotein (Env) on pseudovirus (HIV-1)
[4] = biological target: HIV-1 JRCSF envelope glycoprotein (Env) on pseudovirus (HIV-1) (UniProt P20871)
[5] = biological target: HIV-1 MGRM-C-026 envelope glycoprotein (Env) on pseudovirus (HIV-1)
[6] = biological target: HIV-1 93UG077 envelope glycoprotein (Env) on pseudovirus (HIV-1)
[7] = biological target: HIV-1 MGRM-C-028 envelope glycoprotein (Env) on pseudovirus (HIV-1)
[8] = biological target: HIV-1 92UG005 envelope glycoprotein (Env) on pseudovirus (HIV-1)
[9] = biological target: HIV-1 94UG103 envelope glycoprotein (Env) on pseudovirus (HIV-1)
[10] = biological target: HIV-1 CMU02 envelope glycoprotein (Env) on pseudovirus (HIV-1)
[11] = biological target: HIV-1 92TH021 envelope glycoprotein (Env) on pseudovirus (HIV-1)
[12] = biological target: aMLV envelope protein on pseudovirus (negative control virus)
[13] = biological target: HIV-1 Env of pseudovirus MGRM-F1-013 (clade F) (HIV-1)
[14] = biological target: HIV-1 Env of isolate NL43 (positive control) (HIV-1)
[15] = biological target: aMLV envelope (negative control)
[16] = biological target: HIV-1 JRFL Env (HIV-1)
[17] = biological target: HIV-1 JR-CSF Env P299A (HIV-1 (isolate JR-CSF, clade B)) (UniProt P20871)
[18] = biological target: HIV-1 93UG077 Env (HIV-1)
[19] = biological target: HIV-1 JR-CSF Env V292A (HIV-1 (isolate JR-CSF, clade B)) (UniProt P20871)
[20] = biological target: HIV-1 envelope glycoprotein (Env) of isolate JR-FL, on pseudovirus (HIV-1)
[21] = biological target: HIV-1 envelope glycoprotein (Env) of isolate MGRM-Chronic-B-010, on pseudovirus (HIV-1)
[22] = biological target: HIV-1 NL43 envelope protein (Env) on pseudotyped virus (HIV-1 strain NL43)
[23] = biological target: HIV-1 IAVI_C22 envelope protein (Env) on pseudotyped virus (HIV-1 strain IAVI C22)
[24] = biological target: HIV-1 93IN905 envelope protein (Env) on pseudotyped virus (HIV-1 strain 93IN905)
[25] = biological target: HIV-1 Env of isolate APV-6 (Clade B) (HIV-1)
[26] = biological target: HIV-1 ADA envelope glycoprotein (Env), on pseudovirus (HIV-1 isolate ADA)
[27] = biological target: HIV-1 JR-CSF Env N262A (HIV-1 (isolate JR-CSF)) (UniProt P20871)
[28] = biological target: HIV-1 JR-CSF Env D325A (HIV-1 isolate JR-CSF) (UniProt P20871)
[29] = biological target: HIV-1 JR-CSF Env N295A (HIV-1 (isolate JR-CSF, clade B)) (UniProt P20871)

PGT-141 (4964_G22; 4993_K13) (antibody)
IC50, pseudovirus neutralization [1]: 0.0563 µg/mL
IC50, pseudovirus neutralization [2]: > 10 µg/mL
IC50, pseudovirus neutralization [3]: 0.392 µg/mL
IC50, pseudovirus neutralization [4]: 0.0047 µg/mL
IC50, pseudovirus neutralization [5]: > 10 µg/mL
IC50, pseudovirus neutralization [6]: > 10 µg/mL
IC50, pseudovirus neutralization [7]: 2.35 µg/mL
IC50, pseudovirus neutralization [8]: > 10 µg/mL
IC50, pseudovirus neutralization [9]: > 10 µg/mL
IC50, pseudovirus neutralization [10]: > 10 µg/mL
IC50, pseudovirus neutralization [11]: 0.0019 µg/mL
IC50, pseudovirus neutralization [12]: > 10 µg/mL

2F5 (antibody)
IC50 [13]: 4.57 µg/mL
IC90 (neutralization of pseudovirus) [14]: 19.3 µg/mL
IC90 (neutralization of pseudovirus) [15]: > 50 µg/mL

PGT-142 (4995_E20) (antibody)
IC50, pseudovirus neutralization [1]: 0.0578 µg/mL
IC50, pseudovirus neutralization [2]: > 10 µg/mL
IC50, pseudovirus neutralization [3]: 0.22 µg/mL
IC50, pseudovirus neutralization [4]: 0.0085 µg/mL
IC50, pseudovirus neutralization [5]: > 10 µg/mL
IC50, pseudovirus neutralization [6]: > 10 µg/mL
IC50, pseudovirus neutralization [7]: 1.23 µg/mL
IC50, pseudovirus neutralization [8]: > 10 µg/mL
IC50, pseudovirus neutralization [9]: > 10 µg/mL
IC50, pseudovirus neutralization [10]: > 10 µg/mL
IC50, pseudovirus neutralization [11]: 0.0022 µg/mL
IC50, pseudovirus neutralization [12]: > 10 µg/mL

2G12 (antibody)
IC50 [13]: > 50 µg/mL
IC90 (neutralization of pseudovirus) [14]: 15.8 µg/mL
IC90 (neutralization of pseudovirus) [15]: > 50 µg/mL

5141_B17 (PGT-126) (antibody)
IC50, pseudovirus neutralization [16]: 0.014 µg/mL
Fold IC50 increase relative to wild-type [17]: 0.2 fold
IC50, pseudovirus neutralization [18]: 0.0256 µg/mL
Fold IC50 increase relative to wild-type [19]: 5 fold
IC50, pseudovirus neutralization [20]: 0.014 µg/mL
IC50, pseudovirus neutralization [21]: 0.005 µg/mL

4877_D15 (PGT-122) (antibody)
IC50, pseudovirus neutralization [16]: 0.0471 µg/mL
IC50, pseudovirus neutralization [18]: 0.191 µg/mL
IC50, pseudovirus neutralization [20]: 0.026 µg/mL
IC50, pseudovirus neutralization [21]: 0.018 µg/mL

1495_C14 (PGC14) (antibody)
IC50 [13]: 6 µg/mL
IC50, Neutralizing Antibody Assay, Virus/Ab Incubation 1 hour [22]: 0.35 µg/mL
IC50, Neutralizing Antibody Assay, Virus/Ab Incubation 18 hour [22]: 0.15 µg/mL
IC50, Neutralizing Antibody Assay, Virus/Ab Incubation 1 hour [23]: > 50 µg/mL
IC50, Neutralizing Antibody Assay, Virus/Ab Incubation 18 hour [23]: 13.4 µg/mL
IC50, Neutralizing Antibody Assay, Virus/Ab Incubation 1 hour [24]: > 50 µg/mL
IC50, Neutralizing Antibody Assay, Virus/Ab Incubation 18 hour [24]: 0.146 µg/mL

PGT-143 (4980_N08) (antibody)
IC50, pseudovirus neutralization [1]: 0.0657 µg/mL
IC50, pseudovirus neutralization [2]: > 10 µg/mL
IC50, pseudovirus neutralization [3]: 0.244 µg/mL
IC50, pseudovirus neutralization [4]: 0.0064 µg/mL
IC50, pseudovirus neutralization [5]: > 10 µg/mL
IC50, pseudovirus neutralization [6]: > 10 µg/mL
IC50, pseudovirus neutralization [7]: 1.82 µg/mL
IC50, pseudovirus neutralization [8]: > 10 µg/mL
IC50, pseudovirus neutralization [9]: > 10 µg/mL
IC50, pseudovirus neutralization [10]: > 10 µg/mL
IC50, pseudovirus neutralization [11]: 0.0028 µg/mL
IC50, pseudovirus neutralization [12]: > 10 µg/mL

1443_C16 (PG16) (TCN-116) (antibody)
IC90 (neutralization of pseudovirus) [25]: 44.3 µg/mL
IC50 (ug/ml), pseudovirus neutralization, TZM-bl assay [26]: 0.004 µg/mL
IC50, Neutralizing Antibody Assay, Virus/Ab Incubation 1 hour [22]: < 0.0025 µg/mL
IC50, Neutralizing Antibody Assay, Virus/Ab Incubation 18 hour [22]: 4.99 µg/mL
IC50, Neutralizing Antibody Assay, Virus/Ab Incubation 1 hour [23]: 0.114 µg/mL
IC50, Neutralizing Antibody Assay, Virus/Ab Incubation 18 hour [23]: 0.106 µg/mL
IC50, Neutralizing Antibody Assay, Virus/Ab Incubation 1 hour [24]: 0.33 µg/mL
IC50, Neutralizing Antibody Assay, Virus/Ab Incubation 18 hour [24]: 0.255 µg/mL
IC90 (neutralization of pseudovirus) [14]: > 50 µg/mL
IC90 (neutralization of pseudovirus) [15]: > 50 µg/mL

5114_A19 (PGT-128) (antibody)
Fold IC50 increase relative to wild-type [27]: 1.6 fold

PGT-144 (4970_K22) (antibody)
IC50, pseudovirus neutralization [1]: 4.02 µg/mL
IC50, pseudovirus neutralization [2]: > 10 µg/mL
IC50, pseudovirus neutralization [3]: > 10 µg/mL
IC50, pseudovirus neutralization [4]: 0.128 µg/mL
IC50, pseudovirus neutralization [5]: > 10 µg/mL
IC50, pseudovirus neutralization [6]: > 10 µg/mL
IC50, pseudovirus neutralization [7]: > 10 µg/mL
IC50, pseudovirus neutralization [8]: > 10 µg/mL
IC50, pseudovirus neutralization [9]: > 10 µg/mL
IC50, pseudovirus neutralization [10]: > 10 µg/mL
IC50, pseudovirus neutralization [11]: 0.0934 µg/mL
IC50, pseudovirus neutralization [12]: > 10 µg/mL

5145_B14 (PGT-127) (antibody)
Fold IC50 increase relative to wild-type [28]: 0.93 fold
IC50, pseudovirus neutralization [20]: 0.029 µg/mL
Fold IC50 increase relative to wild-type [29]: 2.3 fold
IC50, pseudovirus neutralization [21]: 0.019 µg/mL

b12 (antibody)
IC90 (neutralization of pseudovirus) [25]: > 50 µg/mL
IC50 [13]: > 50 µg/mL
IC90 (neutralization of pseudovirus) [14]: 0.28 µg/mL
IC90 (neutralization of pseudovirus) [15]: > 50 µg/mL

4E10 (antibody)
IC90 (neutralization of pseudovirus) [14]: 29.6 µg/mL
IC90 (neutralization of pseudovirus) [15]: > 50 µg/mL
